Source: paper PMC9502857, “Heterologous Expression and Catalytic Properties of Codon-Optimized Small-Sized Bromelain from MD2 Pineapple” (Molecules, 2022)

Tested on: O=C(CNC(=O)OCc1ccccc1)Oc1ccc([N+](=O)[O-])cc1
Experiment: purified protein
Settings: 20 mM Tris-HCl pH 8.0, 37 °C (methods; results pH 5.0), GST fusion

Substance: MD2-SBro (small-sized bromelain from MD2 pineapple) (Ananas comosus)
- Km: 42.1 ± 3.81 µM
- Vmax: 0.432 µM/min
- kcat: 0.2 ± 0.008 s⁻¹
- kcat/Km: 4750 ± 230 M⁻¹ s⁻¹
